The test system of the data set is Escherichia coli TOP10. The data set is described as follows: shrunken log2 fold change of peptide-encoding DNA abundance (4.5 h post-induction vs induction); higher = less antimicrobial activity (less host growth inhibition). Conditions: time post-induction: 4.5 h; library: site-saturation at positions 5, 18, 19, 20.
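Further: peptides expressed intracellularly from a pBAD plasmid library in pooled LB shake-flask culture, induced with 0.3% L-arabinose, DNA abundance read by NGS, three biological replicates, DESeq2 with apeglm shrinkage.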

RRIRSRPPRLPRPRPRPWEHPRP: the “shrunken log2 fold change” value is 0.089.

For the sequence RRIRQRPPRLPRPRPRPMYPPRP, the “shrunken log2 fold change” value was -0.329.

RRIRSRPPRLPRPRPRPLPHPRP: the “shrunken log2 fold change” value was 0.277.

For the sequence RRIRARPPRLPRPRPRPWSKPRP, the “shrunken log2 fold change” value was -0.27.

On to RRIRLRPPRLPRPRPRPVSSPRP, for which the “shrunken log2 fold change” value stood at 0.242.

RRIRGRPPRLPRPRPRPNCNPRP: the “shrunken log2 fold change” value turned out to be 0.199.

For RRIRFRPPRLPRPRPRPVCSPRP, the “shrunken log2 fold change” value was -0.279.

Turning to RRIRHRPPRLPRPRPRPDLVPRP, the “shrunken log2 fold change” value was -0.104.

RRIRFRPPRLPRPRPRPSKNPRP: the “shrunken log2 fold change” value is -0.519.

RRIRERPPRLPRPRPRPNEAPRP: the “shrunken log2 fold change” value was -0.0218.

Consider RRIRIRPPRLPRPRPRPYQDPRP, for which the “shrunken log2 fold change” value was -0.0361.

In the case of RRIRTRPPRLPRPRPRPQKRPRP, the “shrunken log2 fold change” value was 0.206.

In the case of RRIRTRPPRLPRPRPRPVKPPRP, the “shrunken log2 fold change” value stood at 0.00237.

Turning to RRIRRRPPRLPRPRPRPMDLPRP, the “shrunken log2 fold change” value was determined as 0.0641.

Turning to RRIRWRPPRLPRPRPRPDYSPRP, the “shrunken log2 fold change” value was -0.106.

Take RRIRIRPPRLPRPRPRPYVTPRP: the “shrunken log2 fold change” value is -0.526.

RRIRVRPPRLPRPRPRPSTIPRP: the “shrunken log2 fold change” value is -0.136.

With RRIRMRPPRLPRPRPRPNCVPRP, the “shrunken log2 fold change” value was -0.00674.

Turning to RRIRCRPPRLPRPRPRPHDMPRP, the “shrunken log2 fold change” value is -0.234.

RRIRRRPPRLPRPRPRPRMPPRP: the “shrunken log2 fold change” value turned out to be 0.381.

As to RRIRDRPPRLPRPRPRPRMWPRP, the “shrunken log2 fold change” value is 0.0802.

For the sequence RRIRVRPPRLPRPRPRPHRRPRP, the “shrunken log2 fold change” value is -0.328.

Regarding RRIRDRPPRLPRPRPRPMCSPRP, the “shrunken log2 fold change” value came to 0.261.

For RRIRTRPPRLPRPRPRPFCVPRP, the “shrunken log2 fold change” value was -0.229.

For the sequence RRIRYRPPRLPRPRPRPRSLPRP, the “shrunken log2 fold change” value was -0.0256.

On to RRIRVRPPRLPRPRPRPGEVPRP, for which the “shrunken log2 fold change” value was found to be 0.101.

For RRIRFRPPRLPRPRPRPTSYPRP, the “shrunken log2 fold change” value is -0.43.

With RRIRARPPRLPRPRPRPRHEPRP, the “shrunken log2 fold change” value came out at 0.638.

As to RRIRGRPPRLPRPRPRPDWQPRP, the “shrunken log2 fold change” value is 0.336.

Turning to RRIRTRPPRLPRPRPRPWNFPRP, the “shrunken log2 fold change” value was -0.0511.

Regarding RRIRPRPPRLPRPRPRPNAEPRP, the “shrunken log2 fold change” value is 0.154.

Consider RRIRRRPPRLPRPRPRPVVCPRP, for which the “shrunken log2 fold change” value is 0.0897.

As to RRIRPRPPRLPRPRPRPDREPRP, the “shrunken log2 fold change” value came out at 0.0682.

As to RRIRVRPPRLPRPRPRPQWMPRP, the “shrunken log2 fold change” value is -0.105.

Consider RRIRARPPRLPRPRPRPNEHPRP, for which the “shrunken log2 fold change” value stood at 0.0215.

In the case of RRIRMRPPRLPRPRPRPLFFPRP, the “shrunken log2 fold change” value worked out at 0.135.

Consider RRIRSRPPRLPRPRPRPEYVPRP, for which the “shrunken log2 fold change” value turned out to be 0.0646.

Consider RRIRHRPPRLPRPRPRPQAMPRP, for which the “shrunken log2 fold change” value was -0.00822.

Turning to RRIRWRPPRLPRPRPRPMCEPRP, the “shrunken log2 fold change” value is -0.0562.

Take RRIRKRPPRLPRPRPRPLHHPRP: the “shrunken log2 fold change” value amounted to 0.141.

Take RRIRVRPPRLPRPRPRPSEGPRP: the “shrunken log2 fold change” value was -0.116.

On to RRIRQRPPRLPRPRPRPCQHPRP, for which the “shrunken log2 fold change” value worked out at 0.0738.

As for RRIRDRPPRLPRPRPRPMHTPRP, the “shrunken log2 fold change” value was determined as 0.0757.

As for RRIRGRPPRLPRPRPRPHAYPRP, the “shrunken log2 fold change” value is 2.11.

RRIRKRPPRLPRPRPRPWHLPRP: the “shrunken log2 fold change” value is -0.596.

In the case of RRIRMRPPRLPRPRPRPYQTPRP, the “shrunken log2 fold change” value is -0.0231.

Take RRIRKRPPRLPRPRPRPPNPPRP: the “shrunken log2 fold change” value came to 0.657.

Regarding RRIRMRPPRLPRPRPRPCNQPRP, the “shrunken log2 fold change” value was -0.0399.

Turning to RRIRIRPPRLPRPRPRPFIMPRP, the “shrunken log2 fold change” value was -0.187.

Take RRIRNRPPRLPRPRPRPICCPRP: the “shrunken log2 fold change” value was -0.062.

In the case of RRIRYRPPRLPRPRPRPATKPRP, the “shrunken log2 fold change” value turned out to be 0.171.

As to RRIRIRPPRLPRPRPRPWRVPRP, the “shrunken log2 fold change” value is -0.0531.

Take RRIRVRPPRLPRPRPRPFMRPRP: the “shrunken log2 fold change” value amounted to 0.184.

RRIRRRPPRLPRPRPRPDVPPRP: the “shrunken log2 fold change” value is 0.0826.

In the case of RRIRMRPPRLPRPRPRPTRSPRP, the “shrunken log2 fold change” value stood at 1.35.

In the case of RRIRERPPRLPRPRPRPEPDPRP, the “shrunken log2 fold change” value worked out at 0.0002.

For RRIRERPPRLPRPRPRPHNTPRP, the “shrunken log2 fold change” value is -0.731.

In the case of RRIRHRPPRLPRPRPRPNCMPRP, the “shrunken log2 fold change” value was -0.0153.

Regarding RRIRQRPPRLPRPRPRPSVQPRP, the “shrunken log2 fold change” value is -0.0622.

With RRIRWRPPRLPRPRPRPGYPPRP, the “shrunken log2 fold change” value was -0.251.

For the sequence RRIRMRPPRLPRPRPRPPWAPRP, the “shrunken log2 fold change” value was 0.911.

Regarding RRIRHRPPRLPRPRPRPPSHPRP, the “shrunken log2 fold change” value is -0.139.

As to RRIRERPPRLPRPRPRPCFKPRP, the “shrunken log2 fold change” value is -0.0311.

Consider RRIRHRPPRLPRPRPRPQDLPRP, for which the “shrunken log2 fold change” value was -0.0414.

Turning to RRIRWRPPRLPRPRPRPGKVPRP, the “shrunken log2 fold change” value was -0.132.

Consider RRIRNRPPRLPRPRPRPAASPRP, for which the “shrunken log2 fold change” value is 0.739.

Take RRIRKRPPRLPRPRPRPDYMPRP: the “shrunken log2 fold change” value came to 0.0305.

Turning to RRIRPRPPRLPRPRPRPLDRPRP, the “shrunken log2 fold change” value is -0.000978.

For RRIRYRPPRLPRPRPRPTMMPRP, the “shrunken log2 fold change” value was -1.19.

As to RRIRVRPPRLPRPRPRPCGWPRP, the “shrunken log2 fold change” value is 0.302.

With RRIRDRPPRLPRPRPRPYVWPRP, the “shrunken log2 fold change” value was -0.579.

For the sequence RRIRMRPPRLPRPRPRPNKSPRP, the “shrunken log2 fold change” value was found to be 0.0117.

Regarding RRIRFRPPRLPRPRPRPEMEPRP, the “shrunken log2 fold change” value is 0.252.

On to RRIRQRPPRLPRPRPRPCGFPRP, for which the “shrunken log2 fold change” value is -0.0124.

In the case of RRIRQRPPRLPRPRPRPITTPRP, the “shrunken log2 fold change” value is -0.0809.

On to RRIRSRPPRLPRPRPRPKFYPRP, for which the “shrunken log2 fold change” value was -0.371.

For RRIRNRPPRLPRPRPRPYTGPRP, the “shrunken log2 fold change” value is -0.0137.

RRIRCRPPRLPRPRPRPRARPRP: the “shrunken log2 fold change” value turned out to be 0.708.

Turning to RRIRHRPPRLPRPRPRPSHSPRP, the “shrunken log2 fold change” value is -0.577.

With RRIRWRPPRLPRPRPRPMEMPRP, the “shrunken log2 fold change” value was determined as 0.0108.

As for RRIRMRPPRLPRPRPRPLMMPRP, the “shrunken log2 fold change” value was determined as 0.452.

As to RRIRNRPPRLPRPRPRPIRYPRP, the “shrunken log2 fold change” value is -0.746.

As for RRIRKRPPRLPRPRPRPVSSPRP, the “shrunken log2 fold change” value was 0.00728.

For RRIRMRPPRLPRPRPRPGTTPRP, the “shrunken log2 fold change” value was 1.24.

As for RRIRNRPPRLPRPRPRPEPFPRP, the “shrunken log2 fold change” value was -0.0904.

Turning to RRIRERPPRLPRPRPRPRVYPRP, the “shrunken log2 fold change” value stood at 0.000497.

As to RRIRIRPPRLPRPRPRPTTRPRP, the “shrunken log2 fold change” value was -0.0487.

As for RRIRCRPPRLPRPRPRPKLTPRP, the “shrunken log2 fold change” value was -0.223.

With RRIRKRPPRLPRPRPRPIWSPRP, the “shrunken log2 fold change” value is -0.0718.

Take RRIRHRPPRLPRPRPRPSQAPRP: the “shrunken log2 fold change” value is -0.142.

Take RRIRMRPPRLPRPRPRPRTRPRP: the “shrunken log2 fold change” value came to 1.09.

With RRIRPRPPRLPRPRPRPDTLPRP, the “shrunken log2 fold change” value was -0.284.

On to RRIRNRPPRLPRPRPRPMCFPRP, for which the “shrunken log2 fold change” value was -0.114.

In the case of RRIRRRPPRLPRPRPRPFIFPRP, the “shrunken log2 fold change” value amounted to 0.25.

For RRIRCRPPRLPRPRPRPTQAPRP, the “shrunken log2 fold change” value is 0.199.

With RRIRCRPPRLPRPRPRPNYMPRP, the “shrunken log2 fold change” value is -0.677.

As to RRIRDRPPRLPRPRPRPTSPPRP, the “shrunken log2 fold change” value was -0.267.

As for RRIRYRPPRLPRPRPRPSNGPRP, the “shrunken log2 fold change” value is 0.015.

As for RRIRNRPPRLPRPRPRPITYPRP, the “shrunken log2 fold change” value is -1.09.

For RRIRGRPPRLPRPRPRPAPWPRP, the “shrunken log2 fold change” value was 0.891.

With RRIRARPPRLPRPRPRPLFQPRP, the “shrunken log2 fold change” value turned out to be 0.0426.

With RRIRNRPPRLPRPRPRPAHGPRP, the “shrunken log2 fold change” value was 0.047.

Turning to RRIRNRPPRLPRPRPRPLVIPRP, the “shrunken log2 fold change” value was -0.432.

For RRIRARPPRLPRPRPRPYGAPRP, the “shrunken log2 fold change” value is -0.206.

Turning to RRIRARPPRLPRPRPRPLRGPRP, the “shrunken log2 fold change” value was determined as 0.954.

For the sequence RRIRMRPPRLPRPRPRPLSSPRP, the “shrunken log2 fold change” value was -0.0576.

With RRIRWRPPRLPRPRPRPYKTPRP, the “shrunken log2 fold change” value was -0.0554.

Regarding RRIRNRPPRLPRPRPRPIYYPRP, the “shrunken log2 fold change” value was -0.977.

Consider RRIRCRPPRLPRPRPRPSVRPRP, for which the “shrunken log2 fold change” value was -0.362.

On to RRIRERPPRLPRPRPRPRHRPRP, for which the “shrunken log2 fold change” value is -0.114.

On to RRIRRRPPRLPRPRPRPTQWPRP, for which the “shrunken log2 fold change” value worked out at 0.183.

RRIRWRPPRLPRPRPRPPSYPRP: the “shrunken log2 fold change” value was -0.116.

Take RRIRLRPPRLPRPRPRPVYGPRP: the “shrunken log2 fold change” value is -0.183.

Regarding RRIRQRPPRLPRPRPRPQFYPRP, the “shrunken log2 fold change” value is -0.407.

As for RRIRPRPPRLPRPRPRPINFPRP, the “shrunken log2 fold change” value is -0.168.

Consider RRIRLRPPRLPRPRPRPNMQPRP, for which the “shrunken log2 fold change” value is -0.171.

With RRIRGRPPRLPRPRPRPQNWPRP, the “shrunken log2 fold change” value was 0.0915.

Turning to RRIRNRPPRLPRPRPRPMVSPRP, the “shrunken log2 fold change” value is -0.145.

RRIRWRPPRLPRPRPRPEMLPRP: the “shrunken log2 fold change” value was determined as 1.17.

Consider RRIRYRPPRLPRPRPRPAADPRP, for which the “shrunken log2 fold change” value is -0.0866.

Regarding RRIRFRPPRLPRPRPRPMQAPRP, the “shrunken log2 fold change” value was 0.119.

In the case of RRIRCRPPRLPRPRPRPAIYPRP, the “shrunken log2 fold change” value was -0.17.

Turning to RRIRSRPPRLPRPRPRPDMYPRP, the “shrunken log2 fold change” value came out at 0.00612.

For RRIRQRPPRLPRPRPRPMKWPRP, the “shrunken log2 fold change” value is 0.273.

On to RRIRSRPPRLPRPRPRPWWIPRP, for which the “shrunken log2 fold change” value was 0.0584.

The record behind these values is the supplement of paper PMC9112550, “Optimization of the antimicrobial peptide Bac7 by deep mutational scanning” (BMC Biology, 2022).
